Data set [1] deals with H292-HGF human lung cancer xenograft. The data set is described as follows: Efficacy of bispecific molecule and other inhibitors of EGFR and c-Met, subcutaneous H292-HGF human lung cancer xenograft. Format: in vivo, SCID/Beige mice. Particulars: for antitumor activity (in words): mouse, in vivo; for Tumor volume: mean ± SEM. For orientation: A xenograft is tissue or cells of one species grown in another, often human tumour cells in immunodeficient mice.
Protocol: The H292-HGF cells were maintained in vitro in RPMI1640 medium supplemented with fetal bovine serum (10% v/v), and L-glutamine (2 mM) at 37° C. in an atmosphere of 5% CO2 in air. The cells were routinely subcultured twice weekly by trypsin-EDTA treatment. The cells growing in an exponential growth phase were harvested and counted for tumor inoculation.
Each mouse was inoculated subcutaneously at the right flank region with H292-HGF tumor cells (2×10^6) in 0.1 ml of PBS with cultrex (1:1) for tumor development. The treatments were started when the mean tumor size reached 139 mm3. […] The date of tumor cell inoculation was denoted as day 0.
Before commencement of treatment, all animals were weighed, and the tumor volumes were measured. Since the tumor volume can affect the effectiveness of any given treatment, mice were assigned into groups using randomized block design based upon their tumor volumes. […] The randomized block design was used to assign experimental animals to groups. First, the experimental animals were divided into homogeneous blocks according to their initial tumor volume. Secondly, within each block, randomization of experimental animals to treatments was conducted.
The endpoint was whether tumor growth can be delayed or tumor bearing mice can be cured. Tumor size was measured twice weekly in two dimensions using a caliper, and the volume was expressed in mm3 using the formula: V=0.5 a×b2 where a and b are the long and short diameters of the tumor, respectively. The tumor size was then used for calculations of both T-C and T/C values. T-C was calculated with T as the time (in days) required for the mean tumor size of the treatment group to reach 1000 mm3, and C was the time (in days) for the mean tumor size of the control group to reach the same size. The T/C value (in percent) was an indication of antitumor efficacy; T and C were the mean tumor volume of the treated and control groups, respectively, on a given day. Complete tumor regression (CR) is defined as tumors that are reduced to below the limit of palpation (62.5 mm3). Partial tumor regression (PR) is defined as tumors that are reduced from initial tumor volume. A minimum duration of CR or PR in 3 or more successive tumor measurements is required for a CP or PR to be considered durable.
Statistical analyses of difference in tumor volume among the groups were evaluated using a one-way ANOVA followed by individual comparisons using Games-Howell (equal variance not assumed). All data were analyzed using SPSS 18.0. p<0.05 was considered to be statistically significant.

A short description of data set [2]: Body weight loss and tolerability in the H292-HGF xenograft study. Conditions: mouse, in vivo.
Protocol: At the time of routine monitoring, the animals were checked for any effects of tumor growth and treatments on normal behavior, such as mobility, visual estimation of food and water consumption, body weight gain/loss (body weights were measured twice weekly), eye/hair matting and any other abnormal effect.
Animals for which the body weight loss exceeded 20%, or for which the mean tumor size of the group exceeds 2000 mm^3 were euthanized. The study was terminated after two weeks of observation after the final dose.
Data set [3] is described as follows: Differential scanning calorimetry in PBS (thermal stability). Particulars: DSC in PBS, EGFR-binding FN3 domains. The class given is physicochemical. The text has this:
A subset of the EGFR binding FN3 domains was engineered to increase the conformational stability of each molecule. […] The new mutants, P54AR5-83v2, P54CR431-v2, and P54AR4-37v2 were expressed and purified as described above. Differential scanning calorimetry in PBS was used to assess the stability of each mutant in order to compare it to that of the corresponding parent molecule.
Differential scanning calorimetry in PBS was used to assess the stability of each FN3 domain.

The test system of data set [4] is cell lines shown in Table 20. Kind of data set: Inhibition of human tumor cell growth by bispecific molecule in cell line panel (standard or low attachment). The class given is cell-based. Here is the method:
(§1) Inhibition of human tumor cell growth was assessed in standard attachment culture as described in Examples 3 or 6, or in low attachment conditions.

Another data set concerns H292 cells. Kind of data set: Inhibition of proliferation of HGF-induced H292 cells. Format: cell-based, human. Conditions: bispecific molecules.
Text: Inhibition of tumor cell proliferation can be measured using standard methods and methods described herein.
The proliferation assay was completed using different combinations EGFR and c-Met binding FN3 domains either as a mixture or linked in a bispecific format. […] This confirmed that the avidity effect observed at the level of the receptors (FIG. 4 and FIG. 5) translates into an improvement in inhibiting cell signaling (Table 12) and cell proliferation (Table 13).
as §1

The target of a further data set is T1, c-Met-Fc fusion protein (Homo sapiens, UniProt P08581).
T1 construct: recombinant EGFR and/or c-Met extracellular domain
Kind of data set: c-Met-Fc affinity by surface plasmon resonance (Proteon). The class given is binding. Conditions: serine mutants of A3 in the context of ECB15. A general note: SPR reads the build-up and loss of mass on a sensor chip optically.

Data set [5] has as its system NCI-H292 cells expressing human HGF. Kind of data set: Tumor efficacy study with four bispecific EGFR/c-Met molecules, H292-HGF xenografts. The class given is in vivo, SCID Beige mice. Conditions: 25 mg/kg three times per week. The method, then: One week after implantation, mice were stratified into groups with equivalent tumor volumes (mean tumor volume=77.9+/−1.7 mm3). Mice were dosed three times per week with the bispecific molecules and tumor volumes were recorded twice weekly.

The mark [6] stands for this setting: listed as bispecific EGFR/c-Met molecule.

This note sets out measurements from patent publication US12304939B2, “EGFR and C-met fibronectin type III domain binding molecules” (Janssen Biotech, Inc., priority 2012, dated 2025).

A word on the Tm: it is the temperature at which the thermal transition is half complete. Usually IC50 stands for the concentration needed to halve the response being measured.

Several values for one entry are separate records, joined by “and”; a condition that tells them apart may be missing. Identical values can stand only once. Entries after “also recorded” stand apart in the source; their conditions may differ.

T1 sequence (P08581 25-932 limits assumed): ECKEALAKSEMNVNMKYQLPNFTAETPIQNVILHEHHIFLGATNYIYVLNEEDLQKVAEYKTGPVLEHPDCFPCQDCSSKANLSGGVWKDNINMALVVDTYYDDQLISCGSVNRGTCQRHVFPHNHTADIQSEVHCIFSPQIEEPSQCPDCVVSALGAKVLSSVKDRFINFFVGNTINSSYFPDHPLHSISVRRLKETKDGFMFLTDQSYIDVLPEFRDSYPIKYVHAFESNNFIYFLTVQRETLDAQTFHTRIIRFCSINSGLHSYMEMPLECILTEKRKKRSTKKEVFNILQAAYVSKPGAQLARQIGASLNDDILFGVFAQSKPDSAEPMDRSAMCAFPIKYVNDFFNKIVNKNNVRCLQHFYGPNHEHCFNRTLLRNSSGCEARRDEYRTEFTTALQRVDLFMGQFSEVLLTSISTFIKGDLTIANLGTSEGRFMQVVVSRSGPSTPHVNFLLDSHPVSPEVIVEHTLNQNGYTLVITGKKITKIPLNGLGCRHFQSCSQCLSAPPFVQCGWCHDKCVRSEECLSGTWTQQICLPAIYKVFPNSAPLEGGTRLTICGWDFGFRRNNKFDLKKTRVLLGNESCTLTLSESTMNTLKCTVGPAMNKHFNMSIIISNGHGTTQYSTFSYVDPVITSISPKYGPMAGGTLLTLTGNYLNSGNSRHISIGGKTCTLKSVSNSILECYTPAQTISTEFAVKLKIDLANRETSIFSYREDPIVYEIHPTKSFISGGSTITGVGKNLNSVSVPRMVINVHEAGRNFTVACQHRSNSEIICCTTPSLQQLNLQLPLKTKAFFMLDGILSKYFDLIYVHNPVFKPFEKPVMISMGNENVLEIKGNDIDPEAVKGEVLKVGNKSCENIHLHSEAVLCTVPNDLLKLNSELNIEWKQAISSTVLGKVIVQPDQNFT

`C[C@@H](Oc1cc(-c2cnn(C3CCNCC3)c2)cnc1N)c1c(Cl)ccc(F)c1Cl` [Crizotinib, crizotinib, reference compound]: the “antitumor activity (in words)” value in data set [1] is “no antitumor activity”. The “toxicity, body weight loss, tolerability (in words)” value (“toxicity, body weight loss” below) in data set [2] is reported as “More severe body weight loss”.
On to `C#Cc1cccc(Nc2ncnc3cc(OCCOC)c(OCCOC)cc23)c1` [Erlotinib, erlotinib, reference compound], for which the “toxicity, body weight loss” value in data set [2] is listed as “More severe body weight loss”.

B1: P54CR4-31: EGFR-binding FN3 domain, SEQ ID NO: 26 (protein)
chain: LPAPKNLVVSEVTEDSLRLSWTAPDAAFDSFLIQYQESEKVGEAINLTVPGSERSYDLTGLKPGTEYTVSIYGVLGSYVFEHDVMLPLSAEFTT
modifications: EGFR binding FN3 domain
Regarding B1, the Tm in data set [3] is 60.9 °C.

B2: P54CR4-31v2: EGFR-binding FN3 domain, SEQ ID NO: 28; stabilized P54CR4-31 (protein)
chain: LPAPKNLVVSEVTEDSARLSWTAPDAAFDSFLIQYQESEKVGEAIVLTVPGSERSYDLTGLKPGTEYTVSIYGVLGSYVFEHDVMLPLSAIFTT
modifications: EGFR binding FN3 domain
Consider B2, for which the Tm in data set [3] stood at 78.9 °C.

B3: ECB15: bispecific SEQ ID NO: 57: P54AR4-83v2, (AP)5, P114AR7P94-A3 (protein)
chain: MLPAPKNLVVSEVTEDSARLSWDDPWAFYESFLIQYQESEKVGEAIVLTVPGSERSYDLTGLKPGTEYTVSIYGVHNVYKDTNMRGLPLSAIFTTAPAPAPAPAPLPAPKNLVVSRVTEDSARLSWTAPDAAFDSFWIRYFEFLGSGEAIVLTVPGSERSYDLTGLKPGTEYVVNIMGVKGGKISPPLSAIFTT
modifications: bispecific EGFR/cMet binding molecule
Take B3: the “growth of NCI-H1975 cell line” value in data set [4] (EGFR L858R, T790M) was “inhibited growth”. Further, in data set [4] (wild type, amplified or mutant EGFR, wild type or amplified c-Met), the “tumor cell growth of cell lines shown in Table 20” value was “inhibited tumor cell growth”. Moreover, the IC50 in the data set with H292 cells worked out at 23 nM. In the data set with c-Met-Fc fusion protein, the ka stood at 351000 M⁻¹ s⁻¹ and the kd came out at 0.000133 s⁻¹.

B4: ECB38: bispecific SEQ ID NO: 120: P54AR4-83v2, (AP)5, P114AR7P94-A3, linked to albumin binding domain (protein)
chain: MLPAPKNLVVSEVTEDSARLSWDDPWAFYESFLIQYQESEKVGEAIVLTVPGSERSYDLTGLKPGTEYTVSIYGVHNVYKDTNMRGLPLSAIFTTAPAPAPAPAPLPAPKNLVVSRVTEDSARLSWTAPDAAFDSFWIRYFEFLGSGEAIVLTVPGSERSYDLTGLKPGTEYVVNIMGVKGGKISPPLSAIFTTAPAPAPAPAPLAEAKVLANRELDKYGVSDYYKNLINNAKTVEGVKALLDEILAALP
modifications: Bispecific EGFR/c-Met binding molecule
Regarding B4, the “Tumor Size at day 23” value in data set [1] (bispecific 25 mg/kg, crizotinib, erlotinib 50 mg/kg, cetuximab 1 mg/mouse, listed as bispecific EGFR/c-Met molecule) is 23 mm^3 and 23 ± 7 mm^3. Also, the Tumor volume in data set [1] (day 7 (start of treatment)) amounted to 137 ± 7 mm^3; in data set [1] (day 9) it was 142 ± 7 mm^3; in data set [1] (day 13), 83 ± 6 mm^3; in data set [1] (day 16) it was 44 ± 7 mm^3; in data set [1] (day 20) it was 30 ± 6 mm^3; in data set [1] (day 23), 23 ± 7 mm^3. The values for the Tumor volume in data set [1] (day 27) and in data set [1] (day 30) were 21 ± 5 mm^3 and 23 ± 6 mm^3, respectively. The “antitumor activity (in words)” value in data set [1] (setting [6]) is reported as “complete tumor regression (CR) in all mice; also recorded: complete response”. In addition, the “tumor growth (tumor growth inhibition, TGI)” value in data set [5] is “reduced tumor growth”; in data set [5] (listed as P54AR4-83v2-P114AR7P94-A3), “showed the most efficacy”. The “toxicity, body weight loss” value in data set [2] (setting [6]) is reported as “Slight toxicity; also recorded: tolerated in 7 out of 10 mice”.

B5: ECB39: bispecific SEQ ID NO: 121: P53A1R5-17v2, (AP)5, P114AR7P94-A3, linked to albumin binding domain (protein)
chain: MLPAPKNLVVSEVTEDSARLSWADPHGFYDSFLIQYQESEKVGEAIVLTVPGSERSYDLTGLKPGTEYTVSIYGVHNVYKDTNMRGLPLSAIFTTAPAPAPAPAPLPAPKNLVVSRVTEDSARLSWTAPDAAFDSFWIRYFEFLGSGEAIVLTVPGSERSYDLTGLKPGTEYVVNIMGVKGGKISPPLSAIFTTAPAPAPAPAPLAEAKVLANRELDKYGVSDYYKNLINNAKTVEGVKALLDEILAALP
modifications: Bispecific EGFR/c-Met binding molecule
B5: the entries for the “tumor growth (tumor growth inhibition, TGI)” value in data set [5] and in data set [5] (listed as P53A1R5-17v2-P114AR7P94-A3) were “reduced tumor growth” and “showed the most efficacy”, respectively.

B6: ECB28: bispecific SEQ ID NO: 119: P53A1R5-17v2, (AP)5, P114AR5P74-A5, linked to albumin binding domain (protein)
chain: MLPAPKNLVVSEVTEDSARLSWADPHGFYDSFLIQYQESEKVGEAIVLTVPGSERSYDLTGLKPGTEYTVSIYGVHNVYKDTNMRGLPLSAIFTTAPAPAPAPAPLPAPKNLVVSRVTEDSARLSWTAPDAAFDSFWIRYDEVVVGGEAIVLTVPGSERSYDLTGLKPGTEYYVNILGVKGGSISVPLSAIFTTAPAPAPAPAPLAEAKVLANRELDKYGVSDYYKNLINNAKTVEGVKALLDEILAALP
modifications: Bispecific EGFR/c-Met binding molecule
On to B6, for which, in data set [5], the “tumor growth (tumor growth inhibition, TGI)” value is on record as “reduced tumor growth”.

B7: P54AR4-37v2: EGFR-binding FN3 domain, SEQ ID NO: 29; stabilized P54AR4-37 (protein)
chain: LPAPKNLVVSEVTEDSLRLSWTWPYADLDSFLIQYQESEKVGEAINLTVPGSERSYDLTGLKPGTEYTVSIYGVHNVYKDTNMRGLPLSAEFTT
modifications: EGFR binding FN3 domain
Take B7: the Tm in data set [3] stood at 64.2 °C.

B8: P54AR4-83: EGFR-binding FN3 domain, SEQ ID NO: 25 (protein)
chain: LPAPKNLVVSEVTEDSLRLSWDDPWAFYESFLIQYQESEKVGEAINLTVPGSERSYDLTGLKPGTEYTVSIYGVHNVYKDTNMRGLPLSAEFTT
modifications: EGFR binding FN3 domain
As for B8, in data set [3], the Tm turned out to be 50.6 °C.

B9: P54AR4-37: EGFR-binding FN3 domain, printed SEQ ID NO: 22 (possibly P54AR4-73) (protein)
chain: LPAPKNLVVSEVTEDSLRLSWTWPYADLDSFLIQYQESEKVGEAINLTVPGSERSYDLTGLKPGTEYTVSIYGVHNVYKDTNMRGLPLSAEFTT
modifications: EGFR binding FN3 domain
For B9, the Tm in data set [3] turned out to be 45.9 °C.
